The values that follow come from patent publication US20200392227A1 (LYVGEN BIOPHARMA, published 2020).

In test [1] the target is T1, human FcγRIIA(R131) expressed on CHO cells (human, UniProt P12318 34-317).
T1 construct: whole, on cells
T1 sequence (looked up): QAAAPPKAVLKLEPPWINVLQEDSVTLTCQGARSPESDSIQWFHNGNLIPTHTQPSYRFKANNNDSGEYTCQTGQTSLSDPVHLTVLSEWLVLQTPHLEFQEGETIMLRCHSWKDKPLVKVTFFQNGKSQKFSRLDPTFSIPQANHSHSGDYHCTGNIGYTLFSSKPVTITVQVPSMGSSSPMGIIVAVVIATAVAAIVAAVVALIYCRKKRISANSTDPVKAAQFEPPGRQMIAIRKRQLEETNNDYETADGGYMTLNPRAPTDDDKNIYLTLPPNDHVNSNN
As to the kind of experiment: FACS, CHO cells expressing FcγRIIA(R131). On the procedure: (§1) For FACS analysis of the IgG mutants' binding to different FcγRs, FcγR overexpressing CHO cells were harvested using trypsin-EDTA and were suspended in cold staining buffer (3% BSA in PBS). Test IgG mutants, which were diluted in staining buffer, were added into the cells. The mixture was incubated 4° C. for 2 hours, and then washed twice with cold staining buffer and re-suspended in PE-labeled anti-human IgG followed by incubation at 4° C. for 2 hours. The mixture was washed twice with staining buffer and re-suspended in 2% PFA in PBS for FACS.
Background: Flow cytometry measures light scatter and fluorescence of single cells or particles in a stream.

The target of test [2] is T2, human FcγRIIA(H131) expressed on CHO cells (human, UniProt P12318 34-317).
T2 construct: whole, on cells
T2 sequence (looked up): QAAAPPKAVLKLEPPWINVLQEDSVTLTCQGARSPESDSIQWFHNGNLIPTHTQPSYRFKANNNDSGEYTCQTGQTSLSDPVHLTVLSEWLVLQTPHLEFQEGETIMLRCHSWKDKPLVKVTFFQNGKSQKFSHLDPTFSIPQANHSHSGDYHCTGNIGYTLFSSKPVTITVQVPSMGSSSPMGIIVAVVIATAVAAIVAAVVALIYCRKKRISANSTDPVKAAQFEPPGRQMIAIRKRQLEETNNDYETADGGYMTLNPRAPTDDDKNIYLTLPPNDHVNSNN
Nature of the test: FACS, CHO cells expressing FcγRIIA(H131). On the procedure: as §1

Test [3] addresses T3, human FcγRIIC expressed on CHO cells (human, UniProt P31995 43-323).
T3 construct: whole, on cells
T3 sequence (looked up): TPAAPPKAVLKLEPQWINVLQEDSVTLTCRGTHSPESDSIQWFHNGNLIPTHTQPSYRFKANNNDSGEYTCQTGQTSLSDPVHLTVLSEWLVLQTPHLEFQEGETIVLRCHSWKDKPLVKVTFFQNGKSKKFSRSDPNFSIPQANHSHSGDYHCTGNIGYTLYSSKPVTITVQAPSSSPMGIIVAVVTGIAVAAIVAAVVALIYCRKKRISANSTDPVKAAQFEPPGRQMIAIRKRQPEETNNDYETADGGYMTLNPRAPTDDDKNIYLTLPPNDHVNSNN
Nature of the test: FACS, CHO cells expressing FcγRIIC.

Test [4] concerns the target T4, human FcRn protein (MednaBio, E1032) (human, UniProt P55899 24-297; P61769 21-119).
T4 construct: Bought; assays at pH 6
Nature of the test: BLI. An outline of the steps: (§2)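 Binding was measured by biolayer interferometry on an Octet Red96 System. Commercial human Fc receptor proteins were loaded at 20 μg/mL onto anti-penta-HIS biosensors, which were then dipped into an 8-point 1:3 dilution series of test IgG starting at 300 nM in PBS with 0.1% BSA and 0.02% Tween-20, at pH 7.2 for Fcγ receptors and pH 6 for FcRn. Kd, kon and koff were obtained by global fitting, with data fitted to a 1:1 binding model.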

In test [5] the target is T5, human FcRIIIA-V158 protein (MednaBio, E1035) (human, UniProt P08637 17-208).
T5 construct: Bought; also called FcγRIIIA(V); FcgRIIIA(V)
Nature of the test: BLI. The procedure, abridged:
as §2

For test [6], the target named is T6, human FcRIIB/C protein (MednaBio, E1034) (human, UniProt P31994 43-217, limits assumed).
T6 construct: Bought as FcRIIB/C; also called FcγRIIB; CD32B
T6 sequence (looked up): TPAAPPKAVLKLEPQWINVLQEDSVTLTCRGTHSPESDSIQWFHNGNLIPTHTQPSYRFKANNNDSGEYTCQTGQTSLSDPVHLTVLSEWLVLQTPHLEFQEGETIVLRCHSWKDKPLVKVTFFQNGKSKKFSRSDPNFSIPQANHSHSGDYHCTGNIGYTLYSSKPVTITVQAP
As to the kind of experiment: BLI. The procedure, abridged:
as §2
(BLI is a label-free optical method that tracks binding on a fibre tip over time.)

Test [7] has as its target T7, human FcRIIIB protein (MednaBio, E1037) (human, UniProt O75015 17-200).
T7 construct: Bought; also called FcγRIIIB; FcgRIIIB
Nature of the test: BLI. The procedure, abridged:
as §2

The target in test [8] is T8, human FcRIIIA-F158 protein (MednaBio, E1036) (human, UniProt P08637 17-208).
T8 construct: Bought; also called FcγRIIIA(F)
Nature of the test: BLI. An outline of the steps:
as §2

Test [9] concerns the target T9, human FcRIIA protein (MednaBio, E1033) (human, UniProt P12318 34-218, limits assumed).
T9 construct: Bought; also called FcγRIIA
T9 sequence (looked up): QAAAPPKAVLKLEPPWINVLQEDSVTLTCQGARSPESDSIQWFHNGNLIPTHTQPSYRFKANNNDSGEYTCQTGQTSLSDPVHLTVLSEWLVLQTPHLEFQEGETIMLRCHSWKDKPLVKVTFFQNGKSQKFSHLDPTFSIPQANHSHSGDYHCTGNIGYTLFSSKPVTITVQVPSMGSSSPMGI
Nature of the test: BLI. An outline of the steps:
as §2

Test [10] addresses T10, human FcRI protein (MednaBio, E1031) (human, UniProt P12314 16-288, limits assumed).
T10 construct: Bought; loaded on anti-penta-HIS biosensors; also called FcγRI
As to the kind of experiment: BLI. The procedure, abridged:
as §2

The target of test [11] is T11, human FcγRI expressed on CHO cells (human, UniProt P12314 16-374).
T11 construct: whole, on cells
Nature of the test: FACS, CHO cells expressing FcγRI. An outline of the steps: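 Trypsin-harvested CHO cells overexpressing each FcγR were incubated 2 h at 4 °C with IgG mutants in 3% BSA/PBS. Bound IgG was detected with PE-labeled anti-human IgG (2 h, 4 °C), then cells were fixed in 2% PFA and analysed by flow cytometry.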

The target of test [12] is T4, human FcRn protein (MednaBio, E1032). As to the kind of experiment: BLI. This is another data set of the same source.
Test [13] deals with T5, human FcRIIIA-V158 protein (MednaBio, …). Nature of the test: BLI. This is another data set of the same source.
Test [14] deals with T6, human FcRIIB/C protein (MednaBio, E1034). Nature of the test: BLI. This is another data set of the same source.
Test [15] has as its target T7, human FcRIIIB protein (MednaBio, E1037). As to the kind of experiment: BLI. The source holds these as a separate data set.
For test [16], the target named is T8, human FcRIIIA-F158 protein (MednaBio, …). As to the kind of experiment: BLI. The source holds these as a separate data set.
Test [17] deals with T9, human FcRIIA protein (MednaBio, E1033). As to the kind of experiment: BLI. The source holds these as a separate data set.
In test [18] the target is T10, human FcRI protein (MednaBio, E1031). Nature of the test: BLI. This is another data set of the same source.

Where two headings read alike, the source gives them in different places.

T10 sequence (P12314 16-288 limits assumed): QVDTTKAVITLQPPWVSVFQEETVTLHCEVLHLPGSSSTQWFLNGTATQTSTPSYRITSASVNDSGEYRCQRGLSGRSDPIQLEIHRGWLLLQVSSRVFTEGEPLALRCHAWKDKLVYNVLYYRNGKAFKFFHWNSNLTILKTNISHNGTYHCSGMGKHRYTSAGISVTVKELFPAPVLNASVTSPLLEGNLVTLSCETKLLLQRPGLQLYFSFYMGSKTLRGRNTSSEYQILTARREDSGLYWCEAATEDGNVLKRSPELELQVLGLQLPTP
T4 sequence (P55899 24-297 limits assumed, form in doubt, chain 1 of 2): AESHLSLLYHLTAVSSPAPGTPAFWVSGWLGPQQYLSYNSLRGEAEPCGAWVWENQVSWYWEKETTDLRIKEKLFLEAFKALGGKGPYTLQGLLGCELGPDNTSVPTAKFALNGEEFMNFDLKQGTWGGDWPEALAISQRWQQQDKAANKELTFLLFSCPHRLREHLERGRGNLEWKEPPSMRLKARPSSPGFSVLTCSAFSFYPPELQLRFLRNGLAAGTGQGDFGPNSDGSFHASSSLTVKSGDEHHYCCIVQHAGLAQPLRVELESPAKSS
T4 sequence (P61769 21-119 limits assumed, form in doubt, chain 2 of 2): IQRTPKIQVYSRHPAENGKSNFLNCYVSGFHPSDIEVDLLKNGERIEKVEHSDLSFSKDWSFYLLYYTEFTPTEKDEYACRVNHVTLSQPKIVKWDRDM
T7 sequence (O75015 17-200 limits assumed): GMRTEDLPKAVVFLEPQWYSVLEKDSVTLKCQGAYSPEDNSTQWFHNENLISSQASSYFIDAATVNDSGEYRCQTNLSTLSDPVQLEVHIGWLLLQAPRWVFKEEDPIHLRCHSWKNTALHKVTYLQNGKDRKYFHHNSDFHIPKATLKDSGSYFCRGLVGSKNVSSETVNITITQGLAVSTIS
T5 sequence (P08637 17-208 F176V): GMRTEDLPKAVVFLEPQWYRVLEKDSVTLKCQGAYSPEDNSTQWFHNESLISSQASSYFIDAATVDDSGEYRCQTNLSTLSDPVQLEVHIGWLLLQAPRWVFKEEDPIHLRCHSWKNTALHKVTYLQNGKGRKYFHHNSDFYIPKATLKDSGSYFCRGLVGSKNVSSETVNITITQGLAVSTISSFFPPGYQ
T8 sequence (P08637 17-208 limits assumed): as the sequence (P08637 17-208 F176V) above, with V160F counted along it
T11 sequence (P12314 16-374): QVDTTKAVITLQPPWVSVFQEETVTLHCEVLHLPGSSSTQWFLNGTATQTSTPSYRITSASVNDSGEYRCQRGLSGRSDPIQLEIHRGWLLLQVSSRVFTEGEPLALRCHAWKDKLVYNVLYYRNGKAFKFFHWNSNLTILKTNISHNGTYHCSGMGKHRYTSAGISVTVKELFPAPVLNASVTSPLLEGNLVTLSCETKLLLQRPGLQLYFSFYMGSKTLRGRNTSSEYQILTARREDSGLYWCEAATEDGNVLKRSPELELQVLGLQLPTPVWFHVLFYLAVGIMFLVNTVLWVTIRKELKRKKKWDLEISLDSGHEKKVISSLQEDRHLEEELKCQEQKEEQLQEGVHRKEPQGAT

B1: anti-CD137 IgG4 with Fc variant G4m9 (antibody)
heavy: EVQLVQSGAEVKKPGESLRISCKGSGYSFSTYWISWVRQMPGKGLEWMGKIYPGDSYTNYSPSFQGQVTISADKSISTAYLQWSSLKASDTAMYYCARGYGIFDYWGQGTLVTVSSASTKGPSVFPLAPCSRSTSESTAALGCLVKDYFPEPVTVSWNSGALTSGVHTFPAVLQSSGLYSLSSVVTVPSSSLGTKTYTCNVDHKPSNTKVDKRVESKYGPPCPPCPAPEFLGGPSVFLFPPKPKDTLMISRTPEVTCVVVDVEQEDPEVQFNWYVDGVEVHNAKTKPREEQFNSTYRVVSVLTVLHQDWLNGKEYKCKVSNKGFPSSIEKTISKAKGQPREPQVYTLPPSQEEMTKNQVSLTCLVKGFYPSDIAVEWESNGQPENNYKTTPPVLDSDGSFFLYSRLTVDKSRWQEGNVFSCSVMHEALHNHYTQKSLSLSLGK
light: SYELTQPPSVSVSPGQTASITCSGDNIGDQYAHWYQQKPGQSPVLVIYQDKNRPSGIPERFSGSNSGNTATLTISGTQAMDEADYYCATYTGFGSLAVFGGGTKLTVLGQPKAAPSVTLFPPSSEELQANKATLVCLISDFYPGAVTVAWKADSSPVKAGVETTTPSKQSNNKYAASSYLSLTPEQWKSHRSYSCQVTHEGSTVEKTVAPTECS
notes: copies: 2 + 2
For the molecule B1, the binding result was “binds” in [1]; “no binding (tested: 10 ug/ml)” in [2]; “binds” in test [3]; “no binding (tested: 300 nM)” in [5]; “no binding (tested: 300 nM)” in test [7]; “no binding (tested: 300 nM)” in test [8]. In addition, the binding result in [9] is on record as “no binding (tested: 300 nM)”. The results for the Kd in test [4], in [6] and in test [10] were 75 nM, 140 nM and 17 nM, respectively. For the same molecule, the results for the koff in [4], in test [6] and in test [10] were 0.017 s⁻¹, 0.013 s⁻¹ and 0.0074 s⁻¹, respectively. Besides, the association rate constant (kon) (as a rule, the second-order rate constant of association) in test [4] amounted to 230000 M⁻¹ s⁻¹; in test [6], 94000 M⁻¹ s⁻¹; in [10], 440000 M⁻¹ s⁻¹.

B2: anti-CD137 IgG4 with Fc variant G4m2 (antibody)
heavy: EVQLVQSGAEVKKPGESLRISCKGSGYSFSTYWISWVRQMPGKGLEWMGKIYPGDSYTNYSPSFQGQVTISADKSISTAYLQWSSLKASDTAMYYCARGYGIFDYWGQGTLVTVSSASTKGPSVFPLAPCSRSTSESTAALGCLVKDYFPEPVTVSWNSGALTSGVHTFPAVLQSSGLYSLSSVVTVPSSSLGTKTYTCNVDHKPSNTKVDKRVESKYGPPCPPCPAPEFLGPSVFLFPPKPKDTLMISRTPEVTCVVVDVSQEDPEVQFNWYVDGVEVHNAKTKPREEQFNSTYRVVSVLTVLHQDWLNGKEYKCKVSNKGLPSSIEKTISKAKGQPREPQVYTLPPSQEEMTKNQVSLTCLVKGFYPSDIAVEWESNGQPENNYKTTPPVLDSDGSFFLYSRLTVDKSRWQEGNVFSCSVMHEALHNHYTQKSLSLSLGK
light: SYELTQPPSVSVSPGQTASITCSGDNIGDQYAHWYQQKPGQSPVLVIYQDKNRPSGIPERFSGSNSGNTATLTISGTQAMDEADYYCATYTGFGSLAVFGGGTKLTVLGQPKAAPSVTLFPPSSEELQANKATLVCLISDFYPGAVTVAWKADSSPVKAGVETTTPSKQSNNKYAASSYLSLTPEQWKSHRSYSCQVTHEGSTVEKTVAPTECS
notes: copies: 2 + 2
With B2, the binding result in test [1] is given as “no binding (tested: 10 ug/ml)”; in test [11] it was “no binding (tested: 10 ug/ml)”; in test [2], “no binding (tested: 10 ug/ml)”; in [13] it was “no binding (tested: 300 nM)”; in test [15], “no binding (tested: 300 nM)”; in test [16] it was “no binding (tested: 300 nM)”. In addition, the binding result in [17] and in test [18] was “no binding (tested: 300 nM)” throughout. Also, the figures for the Kd in test [12] and in [14] were 9.8 nM and 150 nM, respectively. The dissociation rate constant (koff) (usually the first-order rate constant of dissociation) in test [12] came out at 0.013 s⁻¹; in [14] it was 0.046 s⁻¹. The association rate constant (kon) in [12] is 1.4e+06 M⁻¹ s⁻¹; in [14], 310000 M⁻¹ s⁻¹.
